According to patent US20250154275A1 (SHANGHAI JUNSHI BIOSCIENCES, published 2025):
Where a chain is given by its changes, count along the chain named.

Assays:
[1] = target: T1, CD20 on the surface of Raji cells (human, UniProt P11836 1-297); experiment: flow cytometry on Raji cells (CD20 positive), MFI dose curve
T1 construct: whole, on cells; Raji cells are described as human B lymphoma cells, CD20 positive; also called human CD20
T1 sequence (looked up): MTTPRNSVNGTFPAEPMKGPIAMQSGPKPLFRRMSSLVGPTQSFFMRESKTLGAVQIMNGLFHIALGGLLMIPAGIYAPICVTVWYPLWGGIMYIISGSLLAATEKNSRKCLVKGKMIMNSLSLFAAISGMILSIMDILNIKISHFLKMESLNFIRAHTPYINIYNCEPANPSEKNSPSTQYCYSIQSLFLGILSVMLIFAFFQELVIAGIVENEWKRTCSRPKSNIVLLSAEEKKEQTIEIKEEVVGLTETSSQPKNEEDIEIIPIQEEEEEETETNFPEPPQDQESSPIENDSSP

[2] = target: T2, human CD3 on the surface of Jurkat cells (human, UniProt P07766 23-207; P04234 22-171; P09693 23-182); experiment: flow cytometry on Jurkat cells (CD3-positive), MFI dose curve
T2 construct: whole, on cells
T2 sequence (P07766 23-207, chain 1 of 3): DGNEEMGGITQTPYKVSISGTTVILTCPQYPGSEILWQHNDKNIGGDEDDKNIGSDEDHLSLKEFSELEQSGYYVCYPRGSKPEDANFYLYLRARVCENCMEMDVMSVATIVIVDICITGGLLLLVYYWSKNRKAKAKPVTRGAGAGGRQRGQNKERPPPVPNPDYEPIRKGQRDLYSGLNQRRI
T2 sequence (P04234 22-171, chain 2 of 3): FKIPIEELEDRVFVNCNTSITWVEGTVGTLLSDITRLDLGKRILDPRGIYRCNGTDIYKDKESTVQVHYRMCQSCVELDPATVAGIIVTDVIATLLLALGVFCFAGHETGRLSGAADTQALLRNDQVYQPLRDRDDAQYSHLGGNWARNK
T2 sequence (P09693 23-182, chain 3 of 3): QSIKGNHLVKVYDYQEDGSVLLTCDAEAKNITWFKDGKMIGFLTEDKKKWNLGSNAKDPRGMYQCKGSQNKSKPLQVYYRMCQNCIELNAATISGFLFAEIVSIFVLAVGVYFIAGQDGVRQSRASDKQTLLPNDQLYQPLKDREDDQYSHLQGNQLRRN

[3] = target: T1, CD20 on the surface of Raji cells; experiment: flow cytometry on Raji cells (CD20 positive), fluorescent secondary antibody, µg/mL is the unit of the axis; fit value of a flat curve
[4] = target: T3, cynomolgus monkey CD3e overexpressed on the surface of CHO cells (cynomolgus monkey, UniProt Q95LI5 22-198); experiment: flow cytometry on CHO cells overexpressing cynomolgus monkey CD3e
T3 construct: whole, on cells; also called CHO Cyno CD3e cells
T3 sequence (Q95LI5 22-198): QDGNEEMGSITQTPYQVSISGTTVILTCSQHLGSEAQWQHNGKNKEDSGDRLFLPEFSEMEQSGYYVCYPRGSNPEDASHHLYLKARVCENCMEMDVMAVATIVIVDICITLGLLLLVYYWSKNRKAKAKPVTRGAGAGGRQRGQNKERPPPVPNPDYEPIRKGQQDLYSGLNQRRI

[5] = target: T4, recombinant human CD3ε (Novoprotein, C578) (human, UniProt P07766 23-126); experiment: ELISA, plate coated with recombinant human CD3ε, anti-human IgG4 Fc-HRP detection
T4 construct: Bought protein coated on the ELISA plate
T4 sequence (P07766 23-126 limits assumed): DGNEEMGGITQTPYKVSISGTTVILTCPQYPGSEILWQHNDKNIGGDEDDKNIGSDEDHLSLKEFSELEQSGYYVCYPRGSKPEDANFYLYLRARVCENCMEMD

[6] = target: T3, cynomolgus monkey CD3e overexpressed on …; experiment: flow cytometry on CHO cells overexpressing cynomolgus monkey CD3e, fluorescent secondary antibody

In the case of “REGN1979 (Regeneron Pharmaceuticals) (bispecific antibody)”, the EC50 [1] is reported as 30.1 µg/mL and the EC50 [2] is reported as 4.7 µg/mL.

Anti-KLH IgG4 (antibody) showed an EC50 [3] of 52 µg/mL.

B1: bispecific antibody molecule TZT6 (bispecific antibody, human IgG4 S228P, kappa)
heavy: QVQLVQSGAEVKKPGSSVKVSCKASGYAFSYSWINWVRQAPGQGLEWMGRIFPGDGDTDYNGKFKGRVTITADKSTSTAYMELSSLRSEDTAVYYCARNVFDGYWLVYWGQGTLVTVSSASTKGPSVFPLAPCSRSTSESTAALGCLVKDYFPEPVTVSWNSGALTSGVHTFPAVLQSSGLYSLSSVVTVPSSSLGTKTYTCNVDHKPSNTKVDKRVESKYGPPCPPCPAPEFLGGPSVFLFPPKPKDTLMISRTPEVTCVVVDVSQEDPEVQFNWYVDGVEVHNAKTKPREEQFNSTYRVVSVLTVLHQDWLNGKEYKCKVSNKGLPSSIEKTISKAKGQPREPQVYTLPPCQEEMTKNQVSLWCLVKGFYPSDIAVEWESNGQPENNYKTTPPVLDSDGSFFLYSRLTVDKSRWQEGNVFSCSVMHEALHNHYTQKSLSLSLGK
light: DIVMTQTPLSLPVTPGEPASISCRSSKSLLHSNGITYLYWYLQKPGQSPQLLIYQMSNLVSGVPDRFSGSGSGTDFTLKISRVEAEDVGVYYCAQNLELPYTFGGGTKVEIKRTVAAPSVFIFPPSDEQLKSGTASVVCLLNNFYPREAKVQWKVDNALQSGNSQESVTEQDSKDSTYSLSSTLTLSKADYEKHKVYACEVTHQGLSSPVTKSFNRGEC
chain: QAVVTQEPSLTVSPGGTVTLTCRSSTGAVTTSNYANWVQQKPGQAPRGLIGGTNKRAPGTPARFSGSLLGGKAALTLSGVQPEDEAEYYCALWYSNLWVFGCGTKLTVLGGGGSGGGGSGGGGSGGGGSEVQLVESGGGLVQPGGSLKLSCAASGFTFSTYAMNWVRQAPGKCLEWVGRIRSKYNNYATYYADSVKDRFTISRDDSKNSLYLQMNSLKTEDTAVYYCVRHGNFGNSYVSWFAYWGQGTLVTVSSGGGGSGGGGSESKYGPPCPPCPAPEFLGGPSVFLFPPKPKDTLMISRTPEVTCVVVDVSQEDPEVQFNWYVDGVEVHNAKTKPREEQFNSTYRVVSVLTVLHQDWLNGKEYKCKVSNKGLPSSIEKTISKAKGQPREPQVCTLPPSQEEMTKNQVSLSCAVKGFYPSDIAVEWESNGQPENNYKTTPPVLDSDGSFFLVSRLTVDKSRWQEGNVFSCSVMHEALHNRFTQKSLSLSLGK
notes: also called anti-CD3/CD20 bispecific antibody TZT6
B1 was tested, and the EC50 [1] was 3.67 µg/mL, the EC50 [2] was 4.44 µg/mL and the binding result [4] was “binds”. The EC50 [5] was 0.0214 µg/mL.

B2: bispecific antibody molecule TZT7 (bispecific antibody, human IgG4 S228P, kappa)
heavy: B1 heavy with Y348C, C353S, W365S, L367A, Y406V, H434R, Y435F
light: B1 light
chain: QVQLVQSGAEVKKPGSSVKVSCKASGYAFSYSWINWVRQAPGQGLEWMGRIFPGDGDTDYNGKFKGRVTITADKSTSTAYMELSSLRSEDTAVYYCARNVFDGYWLVYWGQGTLVTVSSASTKGPSVFPLAPCSRSTSESTAALGCLVKDYFPEPVTVSWNSGALTSGVHTFPAVLQSSGLYSLSSVVTVPSSSLGTKTYTCNVDHKPSNTKVDKRVASGGGGSGGGGSQAVVTQEPSLTVSPGGTVTLTCRSSTGAVTTSNYANWVQQKPGQAPRGLIGGTNKRAPGTPARFSGSLLGGKAALTLSGVQPEDEAEYYCALWYSNLWVFGCGTKLTVLGGGGSGGGGSGGGGSGGGGSEVQLVESGGGLVQPGGSLKLSCAASGFTFSTYAMNWVRQAPGKCLEWVGRIRSKYNNYATYYADSVKDRFTISRDDSKNSLYLQMNSLKTEDTAVYYCVRHGNFGNSYVSWFAYWGQGTLVTVSSGGGGSGGGGSESKYGPPCPPCPAPEFLGGPSVFLFPPKPKDTLMISRTPEVTCVVVDVSQEDPEVQFNWYVDGVEVHNAKTKPREEQFNSTYRVVSVLTVLHQDWLNGKEYKCKVSNKGLPSSIEKTISKAKGQPREPQVYTLPPCQEEMTKNQVSLWCLVKGFYPSDIAVEWESNGQPENNYKTTPPVLDSDGSFFLYSRLTVDKSRWQEGNVFSCSVMHEALHNHYTQKSLSLSLGK
notes: IgG4 Fc (G4 FC in the vector's name); also called anti-CD3/CD20 bispecific antibody TZT7
For B2, the EC50 [1] was 0.515 µg/mL, the EC50 [2] was 26.6 µg/mL and the binding result [4] was “binds”. The EC50 [5] was 0.0856 µg/mL.

B3: JSCD3 (antibody, human IgG4 S228P, kappa, V domains shown)
VH: EVQLVESGGGLVQPGGSLKLSCAASGFTFSTYAMNWVRQAPGKGLEWVGRIRSKYNNYATYYADSVKDRFTISRDDSKNSLYLQMNSLKTEDTAVYYCVRHGNFGNSYVSWFAYWGQGTLVTVSS
VL: QAVVTQEPSLTVSPGGTVTLTCRSSTGAVTTSNYANWVQQKPGQAPRGLIGGTNKRAPGTPARFSGSLLGGKAALTLSGVQPEDEAEYYCALWYSNLWVFGGGTKLTVLR
notes: humanized from murine SP34; also called humanized anti-CD3 antibody JSCD3; positive control
B3: binds [6].
